Drawing on PMC7144918, this text covers Kd for two molecules.

For this series, the target named is Ku70/80 heterodimer (Ku) (UniProt P12956;P13010 1-609;1-732). The series can be described thus: EMSA. In general terms: Mobility shift assays separate free from complexed probe on a gel.
Sequence of Ku70/80 heterodimer (Ku) (P12956 whole entry, chain 1 of 2): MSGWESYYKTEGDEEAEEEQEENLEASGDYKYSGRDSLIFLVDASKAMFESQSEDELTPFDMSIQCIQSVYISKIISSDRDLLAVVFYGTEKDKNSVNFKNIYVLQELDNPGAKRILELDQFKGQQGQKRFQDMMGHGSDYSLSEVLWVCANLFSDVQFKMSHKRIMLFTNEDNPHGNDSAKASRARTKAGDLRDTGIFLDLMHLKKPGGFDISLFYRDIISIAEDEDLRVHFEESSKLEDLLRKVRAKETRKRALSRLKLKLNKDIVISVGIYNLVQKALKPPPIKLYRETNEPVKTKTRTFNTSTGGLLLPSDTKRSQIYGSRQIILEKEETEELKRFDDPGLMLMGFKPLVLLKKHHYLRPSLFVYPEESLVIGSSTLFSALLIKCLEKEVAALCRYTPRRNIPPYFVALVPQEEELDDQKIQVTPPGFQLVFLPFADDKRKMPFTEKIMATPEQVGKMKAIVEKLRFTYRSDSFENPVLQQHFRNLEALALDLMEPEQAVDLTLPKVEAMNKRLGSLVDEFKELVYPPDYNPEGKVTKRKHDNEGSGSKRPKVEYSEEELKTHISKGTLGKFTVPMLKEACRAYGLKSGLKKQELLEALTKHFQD
Sequence of Ku70/80 heterodimer (Ku) (P13010 whole entry, chain 2 of 2): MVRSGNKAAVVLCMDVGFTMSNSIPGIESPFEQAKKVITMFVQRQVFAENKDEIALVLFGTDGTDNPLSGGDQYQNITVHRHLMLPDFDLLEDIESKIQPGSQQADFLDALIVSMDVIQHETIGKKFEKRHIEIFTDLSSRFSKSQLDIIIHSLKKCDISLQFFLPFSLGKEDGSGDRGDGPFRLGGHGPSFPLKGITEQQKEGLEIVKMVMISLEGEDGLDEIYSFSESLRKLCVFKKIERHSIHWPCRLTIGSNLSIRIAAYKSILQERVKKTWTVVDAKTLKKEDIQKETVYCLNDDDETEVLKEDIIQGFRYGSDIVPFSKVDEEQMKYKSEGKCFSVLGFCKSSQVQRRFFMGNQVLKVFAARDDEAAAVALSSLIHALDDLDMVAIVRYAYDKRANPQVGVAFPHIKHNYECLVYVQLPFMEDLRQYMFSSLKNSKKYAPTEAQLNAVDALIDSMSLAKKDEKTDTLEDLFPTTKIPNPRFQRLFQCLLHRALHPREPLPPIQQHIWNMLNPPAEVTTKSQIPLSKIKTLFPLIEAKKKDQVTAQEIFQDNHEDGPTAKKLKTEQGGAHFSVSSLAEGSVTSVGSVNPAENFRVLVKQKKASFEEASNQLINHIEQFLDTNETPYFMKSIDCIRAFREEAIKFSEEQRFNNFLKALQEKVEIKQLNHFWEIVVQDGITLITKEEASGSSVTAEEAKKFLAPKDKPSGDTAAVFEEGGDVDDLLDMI

B1: BZ57/BZ109 25 bp Cy3 duplex (dsDNA)
DNA 1: GATGCCTCCAAGGTCGACGATGCAG
DNA 2: CTGCATCGTCGACCTTGGAGGCATC
modifications: internal Cy3 in backbone after nt 4 of each strand
What is called Kd is the free concentration of one partner at which half of the binding sites on the other are occupied at equilibrium, for simple one-to-one binding. A low value points to tighter binding. Consider B1, for which binding was put at a Kd of 0.11 nM.

B2: BZ91/BZ107 25 bp duplex (dsDNA)
DNA 1: GATGCCTCCAAGGTCGACGATGCAG
DNA 2: CTGCATCGTCGACCTTGGAGGCATC
On to B2, for which the affinity, expressed as Kd, was 0.086 nM.
